US20230190879A1 (JIANGSU HENGRUI PHARMACEUTICALS, published 2023)
Like-named read-outs stand apart in the source and are kept apart here. *1 amine or outer side, *2 acyl side, *3 side chain or, on linkers, in order; H or OH if unused. Where no end group is shown, it is not given here. Side-chain parts run from the residue outwards. [ ]: non-standard residue; d: D form. γGlu = O=C(O)[C@H](CCC(=O)[*:2])N[*:1]; AEEA = NCCOCCOCC(=O)O; Aib = CC(C)(N)C(=O)O

Assays:
Experiment in all cases: cell-based or functional assay
[1] = biological target: human glucagon-like peptide-1 receptor (GLP-1R) (human) (UniProt P43220)
human glucagon-like peptide-1 receptor (GLP-1R) (human), sequence (P43220 24-463): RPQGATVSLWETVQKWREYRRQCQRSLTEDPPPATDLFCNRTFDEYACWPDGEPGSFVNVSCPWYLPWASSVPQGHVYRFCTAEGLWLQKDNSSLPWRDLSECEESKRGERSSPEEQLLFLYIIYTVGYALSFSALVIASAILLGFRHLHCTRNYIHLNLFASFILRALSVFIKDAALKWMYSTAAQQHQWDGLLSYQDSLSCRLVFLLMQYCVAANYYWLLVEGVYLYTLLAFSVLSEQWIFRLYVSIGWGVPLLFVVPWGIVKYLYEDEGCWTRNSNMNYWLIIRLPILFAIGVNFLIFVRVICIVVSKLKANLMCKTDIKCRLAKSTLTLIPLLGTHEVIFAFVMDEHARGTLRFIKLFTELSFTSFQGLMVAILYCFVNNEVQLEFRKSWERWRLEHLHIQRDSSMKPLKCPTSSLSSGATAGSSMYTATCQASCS

[2] = biological target: human glucose-dependent insulinotropic polypeptide receptor (GIP receptor) (human) (UniProt P48546)
[3] = biological target: human glucagon-like peptide-1 receptor (GLP-1R) (human) (UniProt P43220); remark: listed apart in the source
[4] = biological target: human glucose-dependent insulinotropic polypeptide receptor (GIP receptor) (human) (UniProt P48546); remark: listed apart in the source
[5] = biological target: T1, human glucose-dependent insulinotropic polypeptide receptor (GIP receptor) (human, UniProt P48546 22-466)
T1 sequence (looked up): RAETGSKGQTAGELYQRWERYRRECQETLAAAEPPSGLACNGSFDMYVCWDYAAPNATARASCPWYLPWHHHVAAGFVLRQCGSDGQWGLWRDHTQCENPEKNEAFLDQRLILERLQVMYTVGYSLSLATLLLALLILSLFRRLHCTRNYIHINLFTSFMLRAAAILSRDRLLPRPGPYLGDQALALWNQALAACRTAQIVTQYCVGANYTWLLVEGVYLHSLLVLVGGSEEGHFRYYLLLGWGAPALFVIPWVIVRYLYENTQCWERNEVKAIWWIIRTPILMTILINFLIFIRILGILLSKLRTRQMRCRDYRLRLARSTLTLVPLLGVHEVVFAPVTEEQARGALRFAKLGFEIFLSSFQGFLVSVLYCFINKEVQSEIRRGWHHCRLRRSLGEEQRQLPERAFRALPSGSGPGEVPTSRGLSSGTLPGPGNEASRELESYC

[6] = biological target: T2, human glucagon-like peptide-1 receptor (GLP-1R) (human, UniProt P43220 24-463)
T2 sequence (P43220 24-463): as the sequence (P43220 24-463) above

[7] = biological target: T1, human glucose-dependent insulinotropic …; remark: listed apart in the source
[8] = biological target: T2, human glucagon-like peptide-1 receptor …; remark: listed apart in the source

Molecule | Human GIP receptor activity (EC50 nM); cAMP HTRF in CHO-K1 cells transfected with hGIP receptor [5] [nM] | Human GLP-1R activity (EC50 nM); cAMP HTRF in CHO-K1/GLP-1R/CRE-luc cells [6] [nM] | other results
LY3298176 (peptide) |  |  | Human GLP-1R activity (EC50 nM); cAMP HTRF in CHO-K1/GLP-1R/CRE-luc cells [1]: 0.13 nM; Human GIP receptor activity (EC50 nM); cAMP HTRF in CHO-K1 cells transfected with hGIP receptor [2]: 0.056 nM; Human GLP-1R activity (EC50 nM); cAMP HTRF in CHO-K1/GLP-1R/CRE-luc cells [3]: 0.078 nM; Human GIP receptor activity (EC50 nM); cAMP HTRF in CHO-K1 cells transfected with hGIP receptor [4]: 0.031 nM
Natural GIP (from UniProt P09681 52-93) (ligand) |  |  | Human GIP receptor activity (EC50 nM); cAMP HTRF in CHO-K1 cells transfected with hGIP receptor [4]: 0.006 nM
Y[Aib]EGTFTSDYSIYK([AEEA-AEEA-γGlu-C20‑OH])EKIAAQEFINWLLAGGPSSGAPPPS-NH2 [compound 16#] | 0.095 | 0.029 | 
Y[Aib]EGTFTSDYSIYLEK([AEEA-AEEA-γGlu-C20‑OH])IAAQEFVNWLIAGGPSSGAPPPS-NH2 [compound 9#] | 0.04 | 0.049 | 
Y[Aib]EGTFTSDYSIYK([AEEA-AEEA-γGlu-C20‑OH])EKIAAQEFVNWLLAGGPSSGAPPPS-NH2 [compound 18#] | 0.06 | 0.013 | 
Y[Aib]EGTFTSDYSIYK([AEEA-AEEA-γGlu-C20‑OH])EKIAAQEFVNWLIAGGPSSGAPPPS-NH2 [compound 12#] | 0.17 | 0.03 | 
Y[Aib]EGTFTSDYSIYK([AEEA-AEEA-γGlu-C20‑OH])EKIAAQEFINWLIAGGPSSGAPPPS-NH2 [compound 14#] | 0.13 | 0.013 | 
Y[Aib]EGTFTSDYSIYK([AEEA-AEEA-γGlu-C20‑OH])ERIAAQEFVNWLLAGGPSSGAPPPS-NH2 [compound 17#] | 0.11 | 0.022 | 
Y[Aib]EGTFTSDYSIYLEK([AEEA-AEEA-γGlu-C20‑OH])IAAQEFINWLIAGGPSSGAPPPS-NH2 [compound 10#] | 0.056 | 0.065 | 
Y[Aib]EGTFTSDYSIYK([AEEA-AEEA-γGlu-C20‑OH])ERIAAQEFINWLIAGGPSSGAPPPS-NH2 [compound 15#] | 0.23 | 0.015 | 
Y[Aib]EGTFTSDYSIYK([AEEA-AEEA-γGlu-C20‑OH])DKIAAQEFVNWLLAGGPSSGAPPPS-NH2 [compound 7#] |  |  | Human GIP receptor activity (EC50 nM); cAMP HTRF in CHO-K1 cells transfected with hGIP receptor [7]: 0.11 nM; Human GLP-1R activity (EC50 nM); cAMP HTRF in CHO-K1/GLP-1R/CRE-luc cells [8]: 0.021 nM
Y[Aib]EGTFTSDYSIYK([AEEA-AEEA-γGlu-C20‑OH])ERIAAQEFVNWLIAGGPSSGAPPPS-NH2 [compound 13#] | 0.13 | 0.017 | 
